Laboratory results: the supplement of paper PMC11811203

B1: THAP1; numbered along this chain (parent)
chain: MVQSCSAYGCKNRYDKDKPVSFHKFPLTRPSLCKEWEAAVRRKNFKPTKYSSICSEHFTPDCFKRECNNKLLKENAVPTIFLCTEPHDKKEDLLEPQEQLPPPPLPPPVSQVDAAIGLLMPPLQTPVNLSVFCDHNYTVEDTMHQRKRIHQLEQQVEKLRKKLKTAQQRCRRQERQLEKLKEVVHFQKEKDDVSERGYVILPNDYFEIVEVPA

Variants of: B1
Assay: THAP1 transcriptional activity (GFP+/GFP- enrichment relative to wild-type constructs) (ratio to WT); higher = more THAP1 activity (PSMB5 reporter activation)
Settings: with PSMB5 promoter-GFP reporter
In short: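 A lentiviral site-saturation library covering residues 2–213 of human THAP1, with each position changed to all 20 amino acids, was transduced in duplicate at MOI ~0.3 into THAP1-knockout HEK-293T cells with mClover3 knocked in at endogenous PSMB5. Five days later, BFP+ cells were sorted into GFP-dim and GFP-bright bins and variants were counted by Illumina sequencing of genomic DNA amplicons. Activity is the bright/dim read fold change averaged over replicates and divided by the mean of wild-type synonymous constructs.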

THAP1 transcriptional activity: each site, then its substitutions
K70: G 0.0856 | H 0.709 | I 0.33 | L 0.121 | M 0.175 | N 0.476 | P 0.178 | Q 0.437 | R 2.14 | S 0.325 | T 0.397 | V 0.479 | W 0.129 | Y 0.12
L71: A 0.407 | C 1.42 | D 0.74 | E 0.221 | F 0.361 | G 0.187 | H 0.403 | I 1.07 | K 0.533 | M 0.941 | N 0.266 | P 0.113 | Q 0.432 | R 0.39 | S 0.483 | T 0.52 | V 1.47 | W 0.259 | Y 0.309
L72: A 0.17 | C 0.148 | D 0.169 | E 0.322 | F 0.177 | G 0.189 | H 0.134 | I 0.173 | K 0.0937 | M 0.106 | N 0.129 | P 0.221 | Q 0.163 | R 0.0764 | S 0.092 | T 0.0921 | V 0.172 | W 0.18 | Y 0.172
K73: A 0.31 | C 0.395 | D 0.191 | E 0.261 | F 0.19 | G 0.194 | H 0.598 | I 0.142 | L 0.33 | M 0.543 | N 0.522 | P 0.102 | Q 0.273 | R 0.622 | S 0.154 | T 0.514 | V 0.644 | W 0.212 | Y 0.291
E74: A 0.445 | C 0.522 | D 0.59 | F 1.09 | G 0.501 | H 0.512 | I 0.327 | L 0.384 | M 0.293 | N 0.686 | P 0.952 | Q 1.17 | R 0.858 | S 0.604 | T 0.334 | V 0.618 | W 0.598 | Y 0.453
N75: A 0.373 | C 0.38 | D 0.507 | E 0.468 | F 0.875 | G 1.42 | H 0.567 | I 0.302 | K 0.45 | L 0.286 | M 0.658 | P 0.241 | Q 0.684 | R 0.829 | T 0.612 | V 0.214 | W 0.844 | Y 0.177
A76: C 0.862 | D 0.209 | E 0.444 | F 0.307 | G 0.221 | I 0.165 | K 0.428 | L 0.476 | M 0.215 | N 0.121 | P 0.384 | Q 0.234 | T 0.18 | V 0.435 | W 0.386 | Y 0.191
V77: A 0.343 | C 0.434 | D 0.295 | E 0.259 | F 0.325 | G 0.281 | H 0.287 | L 0.547 | M 0.439 | N 0.195 | Q 0.318 | R 0.539 | S 0.41 | W 0.267 | Y 0.279
P78: A 0.526 | C 0.419 | D 0.183 | E 0.463 | F 0.267 | G 0.102 | I 0.211 | L 0.161 | M 0.495 | N 0.269 | Q 0.241 | R 0.156 | T 0.283 | V 0.191 | Y 0.488
T79: A 0.438 | C 0.183 | D 0.228 | E 0.254 | G 0.301 | H 0.293 | I 0.861 | K 0.278 | L 0.628 | M 0.254 | N 0.622 | P 0.18 | Q 0.296 | S 0.71
